Measurements as given in patent US8754043B2, “Epidermal growth factor compositions” (Bharat Biotech International Limited, priority 2005, dated 2014).

Columns and labels:
rabbits = test: Pre-clinical safety studies (acute 8 days, sub-acute 30 days) in rabbits; format: in vivo
Protocol: (§1) Various combinations of EGF were thus carried out and the combinations were subjected to thermal stability as per ICH guidelines. Pre-clinical studies for safety of the formulations with varying percentages of EGF, were conducted in both rats and rabbits, as per the approved guidelines. Briefly, acute toxicity studies were carried out for 8 days, sub-acute studies were carried on for 30 days and ocular irritation study was conducted for 7 days.

rats = test: Pre-clinical safety studies (acute 8 days, sub-acute 30 days) in rats; format: in vivo
Protocol: as §1

Compound: CC[C@H](C)[C@@H]1NC(=O)[C@H](Cc2ccc(O)cc2)NC(=O)CNC(=O)[C@H](C(C)C)NC(=O)[C@H](C(C)C)NC(=O)[C@@H](NC(=O)[C@H](CC(N)=O)NC(=O)[C@@H]2CSSC[C@@H]3NC(=O)[C@H](Cc4ccc(O)cc4)NC(=O)CNC(=O)[C@H](CC(=O)O)NC(=O)[C@H](Cc4c[nH]cn4)NC(=O)[C@H](CO)NC(=O)[C@H](CC(C)C)NC(=O)[C@@H]4CCCN4C(=O)[C@@H](NC(=O)[C@H](CCC(=O)O)NC(=O)[C@H](CO)NC(=O)[C@H](CC(=O)O)NC(=O)[C@H](CO)NC(=O)[C@@H](N)CC(N)=O)CSSC[C@H](NC(=O)[C@H](C(C)C)NC(=O)CNC(=O)[C@H](CC(=O)O)NC(=O)[C@H](Cc4c[nH]cn4)NC(=O)[C@H](CC(C)C)NC3=O)C(=O)N[C@@H](CCSC)C(=O)N[C@@H](Cc3ccc(O)cc3)C(=O)N[C@@H]([C@@H](C)CC)C(=O)N[C@@H](CCC(=O)O)C(=O)N[C@@H](C)C(=O)N[C@@H](CC(C)C)C(=O)N[C@@H](CC(=O)O)C(=O)N[C@@H](CCCCN)C(=O)N[C@@H](Cc3ccc(O)cc3)C(=O)N[C@@H](C)C(=O)N2)CSSC[C@@H](C(=O)N[C@@H](CCC(N)=O)C(=O)N[C@@H](Cc2ccc(O)cc2)C(=O)N[C@@H](CCCNC(=N)N)C(=O)N[C@@H](CC(=O)O)C(=O)N[C@@H](CC(C)C)C(=O)N[C@@H](CCCCN)C(=O)N[C@@H](Cc2c[nH]c3ccccc23)C(=O)N[C@@H](Cc2c[nH]c3ccccc23)C(=O)N[C@@H](CCC(=O)O)C(=O)N[C@@H](CC(C)C)C(=O)N[C@@H](CCCNC(=N)N)C(=O)O)NC(=O)[C@H](CCCNC(=N)N)NC(=O)[C@H](CCC(=O)O)NC(=O)CNC1=O [EGF, Epidermal Growth Factor]
- biochemical parameters (rabbits; control vs treated): within the normal range and no abnormality was observed
- growth rate and food consumption (rabbits; control vs treated): normal & did not differ significantly
- hematological parameters (rabbits; control vs treated): no observable changes
- anti-body response (rabbits; treated groups): no observable anti-body response
- biochemical parameters (rats; control vs treated): within the normal range and no abnormality was observed
- growth rate and food consumption (rats; control vs treated): normal & did not differ significantly
- hematological parameters (rats; control vs treated): no observable changes
- anti-body response (rats; treated groups): no observable anti-body response
